This assay addresses wasf2_human WASF2 (UniProt Q9Y6W5).

Consider “Ras-related C3 botulinum toxin substrate 1 (Homo sapiens) (from UniProt P63000-1) Q61L”, for which the “effect of a mutation on the interaction” value is “increasing interaction strength”.

Values taken from IntAct's records for PubMed 24132237.
